Measurements: publication PMC11739670 (European Journal of Immunology, 2024)
“And” between values parts separate entries of the source, which are not always exact repeats. Identical values can stand only once.

Legend:
Conditions in all cases: both partners purified
[1] = target: T1, MHCI-related protein 1 (MR1) with β2m, loaded with 5-(2-oxopropylideneamino)-6-d-ribitylaminouracil (human, UniProt Q95460 23-302; P61769 21-119, biotin on the Avi-tag (BirA ligase)); experiment: SPR; BIAcore T200, CM5 chip with streptavidin; biotinylated pMHCI, MR1 or CD1 captured; serial dilution of CD8-Fc fusion injected; 25°C, PBS with 0.005% Tween 20; steady-state responses, 1:1 Langmuir fit
T1 construct: MR1 heavy chain, human; beta-2 microglobulin; Small-molecule cargo: 5-OP-RU; Same protein chains as Dm12 and Dm13; they differ in the cargo only; also called MR1-5OPRU; not shown: Avi-tag, C-terminal, kept

[2] = target: HLA-A*03:01 with peptide … (human | , biotin on the Avi-tag (BirA ligase)); experiment: as above
[3] = target: T2, MHCI-related protein 1 (MR1) with β2m, loaded with 6-formylpterin (human, UniProt Q95460 23-302; P61769 21-119, biotin on the Avi-tag (BirA ligase)); experiment: as above
T2 construct: MR1 heavy chain, human; beta-2 microglobulin; Small-molecule cargo: 6-formylpterin; Same protein chains as Dm11 and Dm13; they differ in the cargo only; also called MR1-6FP; not shown: Avi-tag, C-terminal, kept

[4] = target: HLA-A*02:01 with peptide … (human | , biotin on the Avi-tag (BirA ligase)); experiment: as above
[5] = target: HLA-A*02:01 with peptide … (human | , biotin on the Avi-tag (BirA ligase)); experiment: as above; remark: listed apart in the source
[6] = target: T3, MHCI-related protein 1 (MR1) with β2m, loaded with 5-formyl salicylic acid (human, UniProt Q95460 23-302; P61769 21-119, biotin on the Avi-tag (BirA ligase)); experiment: as above
T3 construct: MR1 heavy chain, human; beta-2 microglobulin; Small-molecule cargo: 5-formyl salicylic acid; Same protein chains as Dm11 and Dm12; they differ in the cargo only; also called MR1-5FSA; not shown: Avi-tag, C-terminal, kept

[7] = target: HLA-A*01:01 with peptide … (human | , biotin on the Avi-tag (BirA ligase)); experiment: as above
[8] = target: HLA-A*02:01 peptide-MHC class I (biotinylated pMHCI) (human | , biotin on the Avi-tag (BirA ligase)); experiment: SPR; biotinylated ligands (pMHCI, MR1, CD1) captured on streptavidin coupled to a CM5 chip; serial dilution of each CD8-Fc fusion injected; steady-state responses, 1:1 Langmuir fit; BIAcore T200, 25°C, PBS with 0.005% Tween 20
[9] = target: T4, MHCI-related protein 1 (MR1) with β-2 microglobulin, biotinylated, loaded with model ligands (human | , UniProt Q95460 23-292; P61769 21-119, biotin on the Avi-tag (BirA ligase)); experiment: as above
T4 construct: MR1 heavy chain, human; β-2 microglobulin; Small-molecule cargoes: 5-(2-oxopropylideneamino)-6-d-ribitylaminouracil, 6-formylpterin, 5-formyl salicylic acid; not shown: Avi-tag, C-terminal, kept

[10] = target: HLA-A*01:01 peptide-MHC class I (biotinylated pMHCI) (human | , biotin on the Avi-tag (BirA ligase)); experiment: as above

B1: soluble human CD8αβ-Fc heterodimer (Fc fusion)
chain 1: not shown
chain 2: LQQTPAYIKVQTNKMVMLSCEAKISLSNMRIYWLRQRQAPSSDSHHEFLALWDSAKGTIHGEEVEQEKIAVFRDASRFILNLTSVKPEDSGIYFCMIVGSPELTFGKGTQLSVVDFLPTTAQPTKKSTLKKRVCRLPRPETQKGPLCSP
notes: CD8 alpha extracellular domain, human, Uniprot P01732, residues 22-182; CD8 beta extracellular domain, human, Uniprot P10966, residues 22-170; Cloned in pFUSE-hIgG1e3 behind a mouse kappa light-chain secretion signal; source: ExpiCHO, purified (protein A, gel filtration); copies: 1 + 1
In the case of B1, the Kd [1] is reported as 228 µM and 233 µM, the Kd [2] is reported as 147 µM and the Kd [3] is reported as 250 µM and 220 µM. The Kd [4] was 238 µM, the Kd [5] was 255 µM and 244 µM and the Kd [6] was 267 µM and 285 µM. The Kd [7] was 101 µM.

B2: soluble human CD8αβ-Fc heterodimer (Fc fusion)
chain 1: not shown
chain 2: LQQTPAYIKVQTNKMVMLSCEAKISLSNMRIYWLRQRQAPSSDSHHEFLALWDSAKGTIHGEEVEQEKIAVFRDASRFILNLTSVKPEDSGIYFCMIVGSPELTFGKGTQLSVVDFLPTTAQPTKKSTLKKRVCRLPRPETQKGPLCSP
notes: CD8α extracellular domain, human, Uniprot P01732, residues 22-182; CD8β extracellular domain, human, Uniprot P10966, residues 22-170; Cloned into pFUSE-hIgG1e3 downstream of a mouse kappa light-chain secretion signal, subcloned into pcDNA3.1; source: ExpiCHO, purified (protein A, gel filtration on Superdex 200); copies: 1 + 1
For B2, the Kd [8] was 189 µM and ~230 µM, the Kd [9] was about 250 µM and the Kd [10] was 107 µM.
